The assay has as its target T1, soluble bovine cation-independent mannose 6-phosphate receptor (CI-MPR), covalently conjugated to Cyanogen … (bovine, UniProt P08169 45-2313, limits assumed, covalently conjugated to Cyanogen bromide-activated-Sepharose 4B).
T1 construct: also called immobilized CI-MPR
Nature of the assay: CI-MPR-affinity bead pull-down from lysates of GNPTAB-/- HeLa cells transfected with empty vector, WT α/β precursor or DS1 mutant; western blot (FIG. 2C).

T1 sequence (P08169 45-2313 limits assumed): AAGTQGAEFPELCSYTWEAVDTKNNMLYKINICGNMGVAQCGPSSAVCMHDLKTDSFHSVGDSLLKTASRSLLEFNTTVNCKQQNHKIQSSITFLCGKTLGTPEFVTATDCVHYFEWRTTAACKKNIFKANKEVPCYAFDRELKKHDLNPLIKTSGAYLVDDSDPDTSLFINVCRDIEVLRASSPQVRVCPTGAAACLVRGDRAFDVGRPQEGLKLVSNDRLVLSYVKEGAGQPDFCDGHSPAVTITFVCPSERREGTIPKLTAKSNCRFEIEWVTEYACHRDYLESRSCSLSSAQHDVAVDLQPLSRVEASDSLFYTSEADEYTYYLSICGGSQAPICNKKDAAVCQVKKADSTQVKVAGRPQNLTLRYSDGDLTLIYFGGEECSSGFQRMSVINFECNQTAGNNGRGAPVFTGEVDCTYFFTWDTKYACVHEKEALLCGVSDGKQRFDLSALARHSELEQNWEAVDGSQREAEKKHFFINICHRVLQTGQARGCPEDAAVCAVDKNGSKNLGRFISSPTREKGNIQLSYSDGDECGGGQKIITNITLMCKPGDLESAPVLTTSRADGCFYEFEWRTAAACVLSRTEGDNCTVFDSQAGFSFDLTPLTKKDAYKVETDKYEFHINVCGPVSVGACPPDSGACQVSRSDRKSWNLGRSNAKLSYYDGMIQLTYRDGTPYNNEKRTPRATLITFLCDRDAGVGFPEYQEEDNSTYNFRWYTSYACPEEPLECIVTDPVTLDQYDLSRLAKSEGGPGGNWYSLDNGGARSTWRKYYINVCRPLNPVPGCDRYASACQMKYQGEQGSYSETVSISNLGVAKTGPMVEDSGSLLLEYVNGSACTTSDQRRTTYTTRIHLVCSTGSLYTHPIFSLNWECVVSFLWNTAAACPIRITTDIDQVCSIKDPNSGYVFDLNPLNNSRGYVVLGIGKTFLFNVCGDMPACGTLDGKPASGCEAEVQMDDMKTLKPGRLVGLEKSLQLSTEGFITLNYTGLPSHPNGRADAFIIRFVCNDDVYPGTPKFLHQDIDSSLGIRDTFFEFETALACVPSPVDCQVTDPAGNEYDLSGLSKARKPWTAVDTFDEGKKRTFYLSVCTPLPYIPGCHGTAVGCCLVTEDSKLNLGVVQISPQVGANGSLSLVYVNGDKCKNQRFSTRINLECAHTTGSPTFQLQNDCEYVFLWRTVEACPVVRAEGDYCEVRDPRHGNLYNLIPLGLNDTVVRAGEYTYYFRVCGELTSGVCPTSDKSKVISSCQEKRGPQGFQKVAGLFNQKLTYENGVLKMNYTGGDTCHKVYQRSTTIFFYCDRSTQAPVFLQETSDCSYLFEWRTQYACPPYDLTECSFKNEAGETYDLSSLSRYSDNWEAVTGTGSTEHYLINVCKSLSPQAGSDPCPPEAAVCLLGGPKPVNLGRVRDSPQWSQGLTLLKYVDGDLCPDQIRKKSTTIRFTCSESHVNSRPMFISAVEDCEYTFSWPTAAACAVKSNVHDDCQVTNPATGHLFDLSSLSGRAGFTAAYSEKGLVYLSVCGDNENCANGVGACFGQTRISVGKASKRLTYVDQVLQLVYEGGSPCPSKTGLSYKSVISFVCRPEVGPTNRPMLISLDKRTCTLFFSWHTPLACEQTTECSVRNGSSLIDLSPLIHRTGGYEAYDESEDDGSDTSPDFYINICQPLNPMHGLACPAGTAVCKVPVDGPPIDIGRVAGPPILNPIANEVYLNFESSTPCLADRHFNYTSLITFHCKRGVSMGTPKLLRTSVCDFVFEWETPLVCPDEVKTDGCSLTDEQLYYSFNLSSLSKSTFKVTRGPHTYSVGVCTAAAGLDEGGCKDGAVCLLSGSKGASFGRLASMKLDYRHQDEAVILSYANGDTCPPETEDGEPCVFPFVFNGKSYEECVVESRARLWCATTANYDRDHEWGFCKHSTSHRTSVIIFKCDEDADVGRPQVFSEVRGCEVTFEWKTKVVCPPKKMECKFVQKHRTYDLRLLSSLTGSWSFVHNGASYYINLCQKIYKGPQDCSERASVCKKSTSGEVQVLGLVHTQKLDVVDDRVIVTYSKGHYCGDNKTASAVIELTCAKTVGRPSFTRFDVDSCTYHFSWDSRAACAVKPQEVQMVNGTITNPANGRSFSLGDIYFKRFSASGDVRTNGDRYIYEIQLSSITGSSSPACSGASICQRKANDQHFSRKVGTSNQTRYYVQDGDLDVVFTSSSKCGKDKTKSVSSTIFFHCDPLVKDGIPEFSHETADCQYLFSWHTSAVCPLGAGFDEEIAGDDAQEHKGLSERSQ
Description: (FIG. 2C) Western blot of GNPTAB^{-/-} HeLa cells co-transfected with the expression plasmids for the indicated proteins along with empty vector, WT α/β precursor or the DS1 mutant cDNA. Cell lysates were incubated with CI-MPR-affinity beads and the binding of the various proteins was determined by probing the blot with the following antibodies: Renin—anti-HA; NPC2, GP, Lamp1 and Lamp2 with antibodies generated against the native protein.

B1: Lamp1 (other, UniProt P11279 29-417, looked up)
chain: AMFMVKNGNGTACIMANFSAAFSVNYDTKSGPKNMTFDLPSDATVVLNRSSCGKENTSDPSLVIAFGRGHTLTLNFTRNATRYSVQLMSFVYNLSDTHLFPNASSKEIKTVESITDIRADIDKKYRCVSGTQVHMNNVTVTLHDATIQAYLSNSSFSRGETRCEQDRPSPTTAPPAPPSPSPSPVPKSPSVDKYNVSGTNGTCLLASMGLQLNLTYERKDNTTVTRLLNINPNKTSASGSCGAHLVTLELHSEGTTVLLFQFGMNASSSRFFLQGIQLNTILPDARDPAFKAANGSLRALQATVGNSYKCNAEEHVRVTKAFSVNIFKVWVQAFKVEGGQFGSVEECLLDENSMLIPIAVGGALAGLVLIVLIAYLVGRKRSHAGYQTI
As to B1, the binding result is reported as “no binding”.

(Values after patent publication US11732249 (WASHINGTON UNIVERSITY, dated 2023).)
